The values below come from US20060035823A1 (published 2006).

The target of experiment [1] is T1, His-tagged TRAF-2 (pEBVHis/TRAF-2) (UniProt Q12933 1-501).
T1 construct: Specificity control, over-expressed in 293T cells
T1 sequence (looked up): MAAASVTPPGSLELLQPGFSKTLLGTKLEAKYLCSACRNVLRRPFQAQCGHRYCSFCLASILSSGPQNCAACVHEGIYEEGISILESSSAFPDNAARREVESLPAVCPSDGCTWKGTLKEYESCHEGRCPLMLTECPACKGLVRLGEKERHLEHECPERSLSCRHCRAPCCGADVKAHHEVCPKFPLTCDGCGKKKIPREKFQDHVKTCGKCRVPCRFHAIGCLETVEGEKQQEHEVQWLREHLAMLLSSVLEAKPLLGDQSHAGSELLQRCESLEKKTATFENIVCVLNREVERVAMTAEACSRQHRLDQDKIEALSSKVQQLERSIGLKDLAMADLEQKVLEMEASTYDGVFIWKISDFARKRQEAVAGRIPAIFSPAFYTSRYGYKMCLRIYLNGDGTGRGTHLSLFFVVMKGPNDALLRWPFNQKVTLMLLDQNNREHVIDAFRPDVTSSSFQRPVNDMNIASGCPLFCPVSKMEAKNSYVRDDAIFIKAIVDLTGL
The experiment can be described thus: co-immunoprecipitation from 293T lysates, anti-X-press IP, anti-HA blot. As to the method:
Membranes were washed with 1× Tris Buffered Saline (TBS) containing 50 mM Tris pH 7.5 (Fisher Scientific) and 150 mM sodium chloride (Fisher Scientific), and then blocked in 1% Blocking Reagent (Roche Molecular Biochemicals) dissolved in 1×TBS.
(§1) Membranes were probed with anti-Xpress, diluted 1:5000 in 0.5% Blocking Reagent, or anti-HA (12CA5) at 0.4 μg/ml (Roche Molecular Biochemicals) in 0.5% Blocking Reagent. Membranes were incubated for 1 hour, then washed twice with TBS containing 0.1% Tween-20 (Sigma Chemical Co.) (1× TBST) and twice with 0.5% Blocking Reagent. Membranes were incubated with anti-mouse IgG-Peroxidase (Roche Molecular Biochemicals) at 1:2500 in 0.5% Blocking Reagent for 60 minutes at room temperature, then washed 4 times in 1× TBST. Proteins were detected with the BM Chemiluminescence Blotting Substrate (POD) (Roche Molecular Biochemicals). Following detection, membranes were stripped of antibodies by incubation with stripping solution containing 62.5 mM Tris pH 6.7, 2% SDS, and 50 mM 2-mercaptoethanol (Fisher Scientific) for 30 minutes at 50° C. The membranes were rinsed with distilled water and then with 1×TBS. The stripped membranes were blocked and reprobed with antibodies as described above.

The target in experiment [2] is T2, GAL4 BD fusion of TRAF-3 aa 110-265 (Zn fingers only), in pGBT9 (human, UniProt P04386 1-147; Q13114 110-265).
T2 construct: The range is printed without its hyphen
Put plainly: yeast two-hybrid.

Experiment [3] deals with GAL4 BD fusion of TRAF-3 aa 267-343 (coiled-coil domain only), in pGBT9 (human, UniProt P04386 1-147; Q13114 267-343). Put plainly: yeast two-hybrid.
Experiment [4] deals with GAL4 BD/TRAF-6 fusion (pGBT9/TRAF-6) (UniProt P04386 1-147; Q9Y4K3 1-522, limits assumed). Put plainly: yeast two-hybrid (β-gal, growth without His).
For experiment [5], the target named is GAL4 BD/TRAF-2 fusion (pGBT9/TRAF-2) (UniProt P04386 1-147; Q12933 1-501, limits assumed). Put plainly: yeast two-hybrid (β-gal, growth without His).
In experiment [6] the target is GAL4 BD/TRAF-4 fusion (pGBT9/TRAF-4) (UniProt P04386 1-147; Q9BUZ4 1-470, limits assumed). Put plainly: yeast two-hybrid (β-gal, growth without His).
The target of experiment [7] is GAL4 BD/TRAF-5 fusion (pGBT9/TRAF-5) (UniProt P04386 1-147; O00463 1-557, limits assumed). Put plainly: yeast two-hybrid (β-gal, growth without His).
In experiment [8] the target is T3, GAL4 DNA-binding domain (BD)/full-length TRAF-3 fusion construct (pGBT9/TRAF-3) (human, UniProt P04386 1-147; Q13114 1-568).
T3 construct: Yeast two-hybrid fusion expressed in yeast Y190; BD is put first as in the vector; also called BD/TRAF-3; bait construct
Put plainly: yeast two-hybrid.

Experiment [9] deals with T4, HA-tagged β-galactosidase (pCGN/LacZ) (UniProt P00722 1-1024 = β-galactosidase).
T4 construct: Specificity control, over-expressed in 293T cells; also called HA-LacZ; RA-LacZ; not shown: N-terminal hemagglutinin (HA) tag of vector pCGN
The experiment can be described thus: co-immunoprecipitation from 293T lysates, anti-HA IP, anti-X-press blot. As for the experimental part: Samples were separated by 10% SDS PAGE and transferred to Immobilon-P PVDF membranes (Millipore Corporation, Bedford, Mass.). Membranes were washed with 1× Tris Buffered Saline (TBS) containing 50 mM Tris pH 7.5 (Fisher Scientific) and 150 mM sodium chloride (Fisher Scientific), and then blocked in 1% Blocking Reagent (Roche Molecular Biochemicals) dissolved in 1×TBS.
as §1

T4 sequence (P00722 whole entry): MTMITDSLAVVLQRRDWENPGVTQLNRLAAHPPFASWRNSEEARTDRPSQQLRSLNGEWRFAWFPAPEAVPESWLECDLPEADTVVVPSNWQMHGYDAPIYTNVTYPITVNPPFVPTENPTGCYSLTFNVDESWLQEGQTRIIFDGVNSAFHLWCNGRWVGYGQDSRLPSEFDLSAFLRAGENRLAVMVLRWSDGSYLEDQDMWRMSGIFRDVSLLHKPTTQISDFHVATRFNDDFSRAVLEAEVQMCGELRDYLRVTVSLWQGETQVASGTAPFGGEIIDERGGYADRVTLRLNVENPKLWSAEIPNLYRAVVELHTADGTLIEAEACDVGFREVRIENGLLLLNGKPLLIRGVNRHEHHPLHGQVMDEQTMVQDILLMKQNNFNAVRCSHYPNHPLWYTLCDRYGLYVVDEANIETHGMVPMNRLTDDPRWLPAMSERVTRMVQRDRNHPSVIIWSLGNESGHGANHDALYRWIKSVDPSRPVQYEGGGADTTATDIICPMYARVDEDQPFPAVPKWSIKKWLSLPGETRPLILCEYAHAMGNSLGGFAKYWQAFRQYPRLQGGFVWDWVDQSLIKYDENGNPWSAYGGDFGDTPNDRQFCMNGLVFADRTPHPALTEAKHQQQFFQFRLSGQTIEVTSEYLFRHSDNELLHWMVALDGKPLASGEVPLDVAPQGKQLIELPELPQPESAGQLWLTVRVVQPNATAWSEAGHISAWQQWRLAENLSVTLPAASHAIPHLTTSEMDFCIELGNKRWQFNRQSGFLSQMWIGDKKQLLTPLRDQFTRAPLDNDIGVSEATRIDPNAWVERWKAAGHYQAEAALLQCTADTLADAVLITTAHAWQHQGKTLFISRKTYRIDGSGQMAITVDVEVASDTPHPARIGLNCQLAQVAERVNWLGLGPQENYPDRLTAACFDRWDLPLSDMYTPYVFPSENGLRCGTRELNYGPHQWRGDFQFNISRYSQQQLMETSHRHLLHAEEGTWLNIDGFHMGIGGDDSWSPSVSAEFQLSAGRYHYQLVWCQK

B1: HA-tagged p62(336-522) (pCGN/p62(336-522)), N-terminal hemagglutinin tag (other)
chain: LINKWSLELEDQERHFLQQATQVNAWDRTLIENGEKITSLHREVEKVKLDQKRLDQELDFILSQQKELEDLLSPLEELVKEQRATIYLQHADEERQKTYKLAENIDAQLKRMAQDLKDIIEHLNTSGAPADTSDPLQQICKILNAHMDSLQWIDQNSALLQRKVEEVTKVCVGRRKEQERSFRITFD
notes: not shown: N-terminal hemagglutinin (HA) tag of vector pCGN
With B1, the binding result in experiment [1] is reported as “no binding”.

B2: GAL4 AD fusion of p62 nucleoporin aa 336-522 (pACT/p62(336-522)) (other, not shown: large carriers)
chain: LINKWSLELEDQERHFLQQATQVNAWDRTLIENGEKITSLHREVEKVKLDQKRLDQELDFILSQQKELEDLLSPLEELVKEQRATIYLQHADEERQKTYKLAENIDAQLKRMAQDLKDIIEHLNTSGAPADTSDPLQQICKILNAHMDSLQWIDQNSALLQRKVEEVTKVCVGRRKEQERSFRITFD
As for B2, the binding result in experiment [2] and in experiment [3] was “no binding” each time.

B3: GAL4 AD fusion of p62 nucleoporin aa 270-522 (pACT/p62(270-522)) (other, UniProt P37198 270-522, looked up, not shown: large carriers)
chain: TTSTAATATATTTSSSSTTGFALNLKPLAPAGIPSNTAAAVTAPPGPGAAAGAAASSAMTYAQLESLINKWSLELEDQERHFLQQATQVNAWDRTLIENGEKITSLHREVEKVKLDQKRLDQELDFILSQQKELEDLLSPLEELVKEQSGTIYLQHADEEREKTYKLAENIDAQLKRMAQDLKDIIEHLNTSGAPADTSDPLQQICKILNAHMDSLQWIDQNSALLQRKVEEVTKVCEGRRKEQERSFRITFD
As for B3, the binding result in [4], in [5], in [6] and in [7] was “no binding” throughout.

B4: GAL4 AD fusion of p62 nucleoporin aa 302-391 (deletion mutant in pGAD424) (other, not shown: large carriers; small tags and cut ends)
chain: IPSNTAAAVTAPPGPGAAAGAAASSAMTYAQLESLINKWSLELEDQERHFLQQATQVNAWDRTLIENGEKITSLHREVEKVKLDQKRLDQ
Regarding B4, the binding result in experiment [8] is reported as “no binding”.

B5: His-tagged TRAF-3 (pEBVHis/TRAF-3), amino-terminal poly-histidine tag and X-press epitope (other, human, UniProt Q13114 1-568, looked up, not shown: small tags and cut ends)
chain: MESSKKMDSPGALQTNPPLKLHTDRSAGTPVFVPEQGGYKEKFVKTVEDKYKCEKCHLVLCSPKQTECGHRFCESCMAALLSSSSPKCTACQESIVKDKVFKDNCCKREILALQIYCRNESRGCAEQLMLGHLLVHLKNDCHFEELPCVRPDCKEKVLRKDLRDHVEKACKYREATCSHCKSQVPMIALQKHEDTDCPCVVVSCPHKCSVQTLLRSELSAHLSECVNAPSTCSFKRYGCVFQGTNQQIKAHEASSAVQHVNLLKEWSNSLEKKVSLLQNESVEKNKSIQSLHNQICSFEIEIERQKEMLRNNESKILHLQRVIDSQAEKLKELDKEIRPFRQNWEEADSMKSSVESLQNRVTELESVDKSAGQVARNTGLLESQLSRHDQMLSVHDIRLADMDLRFQVLETASYNGVLIWKIRDYKRRKQEAVMGKTLSLYSQPFYTGYFGYKMCARVYLNGDGMGKGTHLSLFFVIMRGEYDALLPWPFKQKVTLMLMDQGSSRRHLGDAFKPDPNSSSFKKPTGEMNIASGCPVFVAQTVLENGTYIKDDTIFIKVIVDTSDLPDP
notes: Over-expressed in 293T cells; tested in cell lysates
In the case of B5, in experiment [9], the binding result is “no binding”.
